Measured values taken from US12648946B2, “Combination of antibody-pyrrolobenzodiazepine derivative conjugate and PARP inhibitor” (DAIICHI SANKYO COMPANY, LIMITED, priority 2019, dated 2026).

What was measured:
human claudin-6 = biological target: T1, human claudin-6 (Homo sapiens, UniProt P56747); test: FACS analysis of hybridoma antibodies on claudin-6 forced-expression cells; assay type: binding; conditions: human claudin-6-expressing CHO-K1 cells, cDNA transfection
T1 construct: expressed in transfected cells; host or cells: CHO-K1 cells
T1 sequence (P56747 1-220): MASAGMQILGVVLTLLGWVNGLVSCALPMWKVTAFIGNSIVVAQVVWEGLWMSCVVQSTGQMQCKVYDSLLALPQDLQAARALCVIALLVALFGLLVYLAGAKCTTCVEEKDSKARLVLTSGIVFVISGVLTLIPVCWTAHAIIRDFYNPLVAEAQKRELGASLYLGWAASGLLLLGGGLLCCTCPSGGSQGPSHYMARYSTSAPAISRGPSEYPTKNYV
Protocol: Since the antigen for the 218B1 antibody and 218C7 antibody was estimated to be claudin-6 from the mass spectrometry, forced expression analysis by cDNA transfection was carried out.

[1] = system: BxPC-3, human pancreatic cancer cell line of human CLDN6-negative cells; test: Internalization activity of antibodies (Mab-ZAP, CellTiter-Glo); assay type: cell-based; conditions: antibody 1 nM with Mab-ZAP 0.5 nM, 5 days
Protocol: (§1) Internalization activity of the mouse anti-CLDN6 antibodies B1 and C7 was evaluated by using the anti-mouse IgG reagent, to which a toxin that inhibits protein synthesis (saporin) had been conjugated, Mab-ZAP (Advanced Targeting Systems). In this evaluation, Mab-ZAP is incorporated into cells in a manner depending on the internalization activity of a mouse anti-CLDN6 antibody, and saporin, which inhibits protein synthesis, is released in the cells to suppress cell growth.
(§2) JEG-3 (ATCC HTB-36), a human choriocarcinoma cell line of human CLDN6-positive cells, NIH: OVCAR-3 (ATCC HTB-161), a human ovarian cancer cell line of human CLDN6-positive cells, or BxPC-3 (ATCC CRL-1687), a human pancreatic cancer cell line of human CLDN6-negative cells, was seeded in a 96-well cell culture microplate at 2×10^3 cells/well, and cultured under conditions of 37° C. and 5% CO2 overnight. On the next day, a mixed solution obtained by mixing each mouse anti-CLDN6 antibody or mouse IgG1 antibody (R&D Systems, Inc.) to a final concentration of 1 nM, with Mab-ZAP (final concentration: 0.5 nM) or AffiniPure Goat Anti-Mouse IgG, Fcγ Fragment Specific (Jackson ImmunoResearch Laboratories Inc.) (final concentration: 0.5 nM), without conjugated toxin, was added, and the cells were cultured under conditions of 37° C. and 5% CO2 for 5 days. The number of surviving cells was determined through quantification of ATP activity by using CellTiter-Glo Luminescent Cell Viability Assay (Promega Corporation).

[2] = system: JEG-3, human choriocarcinoma cell line of human CLDN6-positive cells; test: as above; assay type: cell-based; conditions: antibody 1 nM with Mab-ZAP 0.5 nM, 5 days
Protocol: as §1, §2

[3] = system: NIH: OVCAR-3, human ovarian cancer cell line of human CLDN6-positive cells; test: as above; assay type: cell-based; conditions: antibody 1 nM with Mab-ZAP 0.5 nM, 5 days
Protocol: as §1, §2

FACS reaction (human claudin-6): strong positive reaction
B1: C7: mouse anti-CLDN6 antibody from hybridoma 218C7; heavy chain variable region SEQ ID NO: 25, light chain SEQ ID NO: 23 (antibody, listed as Mus musculus, V domains shown)
VH: EVQLQQSGPELVKPGASVKISCKTSGYTFTEYTMHWVQQSHGKSLEWIGGVNPNSGDTSYNQKFKGKATLTVDKSSSTAYMELRSLTSEDSAVYYCARPGGYDVGYYAMDYWGQGTSVTVSS
VL: DIQMTQTASSLSASLGDRVTISCRASQDINNYLNWYQQKPDGTVKLLIYSTSRLHSGVPSRFSGSGSGTHYSLTITHLEQEDIATYFCQQGYPLPWTFGGGTKLEIK
modifications: amino acid sequence of variable region of C7 antibody heavy chain; amino acid sequence of variable region of C7 antibody light chain
Cell growth-suppressing effect (internalization activity) [1]: no cell growth-suppressing effect
Cell growth-suppressing effect (internalization activity) [2]: cell growth-suppressing effect
Cell growth-suppressing effect (internalization activity) [3]: cell growth-suppressing effect
